Tests used:
[1] = molecular target: T1, human IL-18Rβ (human, UniProt O95256 20-356, limits assumed); assay: SPR (Carterra LSA), antibody captured on anti-human IgG-Fc, monomeric antigen as analyte, 25 C
T1 construct: Monomeric antigen injected in SPR; also called IL-18R beta; IL-18Rb
T1 sequence: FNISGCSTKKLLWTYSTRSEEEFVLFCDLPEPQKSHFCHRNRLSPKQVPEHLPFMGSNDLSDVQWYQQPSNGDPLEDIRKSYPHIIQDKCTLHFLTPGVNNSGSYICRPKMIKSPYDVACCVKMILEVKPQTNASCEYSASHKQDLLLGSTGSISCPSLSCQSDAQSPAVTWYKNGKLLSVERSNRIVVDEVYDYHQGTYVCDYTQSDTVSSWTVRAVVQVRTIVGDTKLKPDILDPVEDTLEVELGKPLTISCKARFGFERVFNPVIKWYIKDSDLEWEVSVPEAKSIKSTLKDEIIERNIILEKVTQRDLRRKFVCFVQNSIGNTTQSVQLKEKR
Procedure: (§1) SPR experiments were performed using Carterra LSA equipped with an HC30M chip (Carterra-Bio). Binding assays were carried out at 25° C. with HBSTE (10 mM HEPES ph7.4, 150 mM NaCl, 3 mM EDTA, 0.05% Tween-20) with 0.5 g/L BSA. A density of anti-human IgG-Fc capture lawn was established on an HC30M chip using amine coupling. […] Coupling of goat anti-human IgG (H+L) multi-species SP ads-UNLB (Southern Biotech, 2087-01) with standard immobilization was done for 15 minutes in 10 mM sodium acetate pH 4.5 and quenched using 1M ethanolamine HCl PH8.5. The anti-human IgG-Fc capture surface was then used to capture a panel of antibodies at 20 μg/mL. Monomeric antigen for human IL-18Rα, human IL-18Rβ, cynomolgus IL-18Rα, or rhesus IL-18Rβ targeted by the antibodies was injected over the captured antibody array at 6 concentrations in 4-fold dilution series starting at 500 nM. Binding data was referenced and blanked from a buffer injected, then globally fit to a 1:1 Langmuir binding model for estimation of ka, kd, and KD using Carterra Kinetics Software.

[2] = molecular target: T2, rhesus IL-18Rβ (rhesus, UniProt F7HHC1 20-356); assay: as above
T2 construct: also called non-human primate IL-18Rβ
T2 sequence: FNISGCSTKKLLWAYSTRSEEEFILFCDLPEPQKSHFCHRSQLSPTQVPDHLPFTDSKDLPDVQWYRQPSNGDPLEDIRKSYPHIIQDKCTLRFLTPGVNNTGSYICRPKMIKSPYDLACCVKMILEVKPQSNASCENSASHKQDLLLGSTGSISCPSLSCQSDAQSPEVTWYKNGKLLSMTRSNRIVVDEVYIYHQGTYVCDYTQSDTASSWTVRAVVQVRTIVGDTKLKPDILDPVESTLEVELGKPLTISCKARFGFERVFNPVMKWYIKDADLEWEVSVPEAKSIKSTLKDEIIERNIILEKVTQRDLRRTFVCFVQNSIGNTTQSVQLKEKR
Procedure: as §1

[3] = molecular target: T3, human IL-18Rα (human, UniProt Q13478 19-329, limits assumed); assay: as above
T3 construct: Monomeric antigen injected in SPR; also called huIL18Ra; IL-18R alpha
T3 sequence: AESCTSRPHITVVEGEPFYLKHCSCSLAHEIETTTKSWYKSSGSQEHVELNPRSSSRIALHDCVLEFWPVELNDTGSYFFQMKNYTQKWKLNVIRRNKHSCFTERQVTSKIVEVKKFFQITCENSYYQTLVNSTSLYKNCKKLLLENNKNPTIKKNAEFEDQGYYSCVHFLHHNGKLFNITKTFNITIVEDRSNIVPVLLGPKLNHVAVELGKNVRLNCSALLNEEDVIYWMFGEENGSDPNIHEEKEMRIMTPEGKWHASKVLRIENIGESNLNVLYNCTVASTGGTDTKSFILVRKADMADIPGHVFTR
Procedure: as §1

[4] = molecular target: T4, cynomolgus IL-18Rα (cynomolgus, UniProt A0A2K5V3J9 19-328); assay: as above
T4 construct: also called Cyno IL-18Rα; non-human primate IL-18Rα
T4 sequence: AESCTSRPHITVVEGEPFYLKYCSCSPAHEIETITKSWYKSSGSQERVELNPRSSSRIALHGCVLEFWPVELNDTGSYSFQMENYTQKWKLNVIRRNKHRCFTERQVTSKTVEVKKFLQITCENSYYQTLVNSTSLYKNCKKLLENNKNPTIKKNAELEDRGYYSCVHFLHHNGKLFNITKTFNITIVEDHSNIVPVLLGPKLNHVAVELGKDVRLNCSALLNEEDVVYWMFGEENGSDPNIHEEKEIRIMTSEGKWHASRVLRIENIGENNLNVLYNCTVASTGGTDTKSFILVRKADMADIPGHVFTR
Procedure: as §1

[5] = molecular target: T5, IL-18 receptor (IL-18Rα/IL-18Rβ) on human PBMCs (human, UniProt Q13478 19-541; O95256 20-599); assay: cell-based or functional assay
T5 sequence 1: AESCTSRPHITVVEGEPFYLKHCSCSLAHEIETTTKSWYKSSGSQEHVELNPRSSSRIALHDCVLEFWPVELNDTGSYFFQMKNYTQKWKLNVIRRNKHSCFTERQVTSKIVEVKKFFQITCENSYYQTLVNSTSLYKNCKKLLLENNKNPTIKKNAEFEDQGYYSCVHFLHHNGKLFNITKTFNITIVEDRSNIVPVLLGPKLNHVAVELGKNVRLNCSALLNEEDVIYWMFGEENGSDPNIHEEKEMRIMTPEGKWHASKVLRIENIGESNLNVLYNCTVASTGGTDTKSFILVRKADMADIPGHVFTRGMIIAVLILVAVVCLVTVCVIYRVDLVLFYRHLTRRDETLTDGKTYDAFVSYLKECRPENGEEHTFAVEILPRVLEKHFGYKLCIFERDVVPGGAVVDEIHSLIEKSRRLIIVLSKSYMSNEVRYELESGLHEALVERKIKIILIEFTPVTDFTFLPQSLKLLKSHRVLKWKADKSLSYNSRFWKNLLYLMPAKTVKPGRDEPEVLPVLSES
T5 sequence 2: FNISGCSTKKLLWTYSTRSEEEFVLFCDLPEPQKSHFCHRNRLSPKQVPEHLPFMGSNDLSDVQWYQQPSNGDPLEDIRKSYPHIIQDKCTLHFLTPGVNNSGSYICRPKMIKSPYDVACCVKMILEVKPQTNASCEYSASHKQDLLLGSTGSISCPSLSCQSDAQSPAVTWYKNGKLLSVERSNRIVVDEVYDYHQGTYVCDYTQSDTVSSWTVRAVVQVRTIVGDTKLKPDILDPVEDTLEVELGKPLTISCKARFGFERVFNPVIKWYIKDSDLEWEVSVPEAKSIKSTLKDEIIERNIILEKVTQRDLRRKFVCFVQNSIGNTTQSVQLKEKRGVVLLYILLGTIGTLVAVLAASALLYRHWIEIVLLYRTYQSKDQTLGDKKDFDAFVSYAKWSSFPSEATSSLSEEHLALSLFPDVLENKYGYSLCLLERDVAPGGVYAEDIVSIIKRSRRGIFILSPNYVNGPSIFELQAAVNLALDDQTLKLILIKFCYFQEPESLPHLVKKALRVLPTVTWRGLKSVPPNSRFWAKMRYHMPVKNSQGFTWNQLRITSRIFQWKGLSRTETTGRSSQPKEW

[6] = molecular target: T6, IL-18 receptor (IL-18Rα/IL-18Rβ) overexpressed on HEK-Blue IL-18 cells (Homo sapiens (Human), UniProt Q13478 19-541; O95256 20-599); assay: cell-based or functional assay
T6 sequence 1: T5 sequence 1
T6 sequence 2: T5 sequence 2

B1: DGL346 (bispecific antibody)
heavy 1: EVQLVESGGGLIQPGGSLRLSCAASGSISSRDTMGWYRQAPGKGREMVSVISSSGNTNYADSVLGRFTISRDNAKNTVYLQMNALRAEDTAVYKCYAHRTYGVDYWGQGTLVTVSSGGGSQVQLVESGGGLVQPGGSLRLSCAASGRTFSSYTMGWFRQAPGKGREFVSAISWSAGRTYYADSVKGRFTISRDNAKNTVYLQMNALRAEDTAVYYCAAEEAPDWAPIDCSGYGCLSLYDYWGQGTLVTVSDKTHTCPPCPAPEAAGAPSVFLFPPKPKDTLYITREPEVTCVVVDVSHEDPEVKFNWYVDGVEVHNAKTKPREEQYNSTYRVVSVLTVLHQDWLNGKEYKCKVSNKALPAPIEKTISKAKGQPREPQVCTLPPSRDELTKNQVSLSCAVKGFYPSDIAVEWESNGQPENNYKTTPPVLDSDGSFFLVSKLTVDKSRWQQGNVFSCSVMHEALHNHYTQKSLSLSPG
heavy 2: DKTHTCPPCPAPEAAGAPSVFLFPPKPKDTLYITREPEVTCVVVDVSHEDPEVKFNWYVDGVEVHNAKTKPREEQYNSTYRVVSVLTVLHQDWLNGKEYKCKVSNKALPAPIEKTISKAKGQPREPQVYTLPPCRDELTKNQVSLWCLVKGFYPSDIAVEWESNGQPENNYKTTPPVLDSDGSFFLYSKLTVDKSRWQQGNVFSCSVMHEALHNHYTQKSLSLSPG
notes: humanized
- Kd [1]: 2.2 nM
- Kd [2]: 10 nM
- Kd [3]: 60 nM
- Kd [4]: 900 nM
- PBMC: calculated maximum induction of IFNγ after 24 hours, donor 1 [5]: 16000
- PBMC: calculated maximum induction of IFNγ after 24 hours, donor 2 [5]: 1700
- PBMC: calculated maximum induction of IFNγ after 24 hours, donor 3 [5]: 22000
- PBMC: calculated maximum induction of IFNγ after 24 hours, donor 4 [5]: 17000
- PBMC: calculated maximum induction of IFNγ after 24 hours, donor 5 [5]: 15000
- PBMC: calculated maximum induction of IFNγ after 24 hours, donor 6 [5]: 3000
- HEK-Blue IL-18: Abs 405 at 100 nM [6]: 1.34 Abs
- HEK-Blue IL-18: Fold over Background [6]: 7.2 fold

From patent US20240209100A1 (DIAGONAL THERAPEUTICS, published 2024)
